Assay results taken from US20200123231A1 (RESEARCH FOUNDATION OF THE CITY UNIVERSITY OF NEW YORK, published 2020).

Biological target: the molecule itself
Assay: TEM, negative stain, TES buffer pH 7, 24 h at 37 C; non-specific self-association (no fibrils)
Experimental: FIG. 5A and FIG. 5B are TEM images of the non-specific aggregates of Col108r. The fibril formation was initiated by transferring Col108r in 5 mM Acetic Acid (pH 4.5) to TES buffer (pH 7) and incubated for 24 hr at 37° C. The grids were stained with 1% sodium phosphotungstate; magnification factor 10,000; the scale bar is 200 nm. The two images were taken for two different preparations under identical treatments.

B1: peptide Col108r (Col-domain, randomized Col-domain and reversed Col-domain units) (peptide)
chain: GPCCGPPGPPGPPGPPGERGPPGPQGARGLPGAPGQMGPRGLPGERGRPGAPGPAGARGEPGAPGSKGDTGAKGEPGPVGVQGPPGPAGEEGKRGARGEPGPTGPAGPKGSPGEAGRPGEAGLPGPPGPPGPPGPPGMQGLPGPRGAPGRAGPEGRAGRPGPAGLPGEQGRAGRPGPPGAEGAEGKPGAPGSPGPRGLPGPAGDTGPEGQVGARGPKGEPGTPGRAGEPGEPGVPGKAGPKGESGPPGPPGPPGPPGREGPPGQPGRAGPLGPAGMQGRPGPLGREGPRGPAGAPGRAGPEGPAGKSGTDGKAGPEGVPGQVGPPGAPGEEGRKGRAGPEGTPGAPGKPGPSGAEGPRGAEGPLGPPGPPGPPGPPGPCCGYIPEAPRDGQAYVRKDGEWVLLSTFL
notes: Forms a collagen triple helix (trimer) with Cys-knots and foldon
  binding result: binds
